# B1: DmrC-p65: CAG-DmrC-NLS-FLAG-P65; DmrC dimerization domain fused to p65 activation domain (SEQ ID NO: 50) (protein)
# chain: MGSRILWHEMWHEGLEEASRLYFGERNVKGMFEVLEPLHAMMERGPQTLKETSFNQAYGRDLMEAQEWCRKYMKSGNVKDLLQAWDLYYHVFRRISKGGGSPKKKRKVSSDYKDHDGDYKDHDIDYKDDDDKAAGGGGSGSEASGSGRADALDDFDLDMLGSDALDDFDLDMLGSDALDDFDLDMLGSDALDDFDLDMLINSRSSGSPKKKRKVGSQYLPDTDDRHRIEEKRKRTYETFKSIMKKSPFSGPTDPRPPPRRIAVPSRSSASVPKPAPQPYPFTSSLSTINYDEFPTMVFPSGQISQASALAPAPPQVLPQAPAPAPAPAMVSALAQAPAPVPVLAPGPPQAVAPPAPKPTQAGEGTLSEALLQLQFDDEDLGALLGNSTDPAVFTDLASVDNSEFQQLLNQGIPVAPHTTEPMLMEYPEAITRLVTGAQRPPDPAPAPLGAPGLPNGLLSGDEDFSSIADMDFSALLGSGSGSRDSREGMFLPKPEAGSAISDVFEGREVCQPKRIRPFHPPGSPWANRPLPASLAPTPTGPVHEPVGSLTPAPVPQPLDPAPAVTPEASHLLEDPDEETSQAVKALREMADTVIPQKEEAAICGQMDLSHPPPRGHLDELTTTLESMTEDLNLDSPLTPELNEILDTFLNDECLLHAMHISTGLSIFDTSLF
# modifications: misc_feature 1..2016 MMW948: CAG-DmrC-NLS-FLAG-VPR
# Assays:
# Assay type in all cases: cell-based, human
# NPY1R = assay: RT-qPCR activation of endogenous NPY1R gene promoter in HEK293 cells; details: single crRNA
# Protocol: (§1) FIGS. 1A-1E. Targeted human endogenous gene regulation using individual crRNAs with dLbCpf1-based activators • (A) Schematic showing direct dLbCpf1-VPR and dLbCpf-p65 activator fusion proteins. • (B) Activities of dLbCpf1-p65 or dLbCpf1-VPR using single crRNAs at three endogenous human genes (HBB, AR, and NPY1R) in human HEK293 cells. Relative activation of the indicated gene promoters was measured by RT-qPCR. Three separate individual crRNAs were targeted within promoter sequence 1 kb upstream of the transcription start site for each gene. Relative mRNA expression is calculated by comparison to the control sample in which no crRNA is expressed. (C) Analysis of various crRNAs targeted to the human CD5 and CD22 promoters. 32 crRNAs (16 for each gene) were designed to target sites located within promoter sequences 1 kb upstream or 500 bps downstream of the TSS of each gene. Repetitive sequences were not targeted. After 72 hours post-transfection, cells were stained with fluorescently labeled antibody for CD5 or CD22 protein and fluorescent-positive cells were quantified by flow cytometry. Error bars represent s.e.m. for three biological replicates. […] (D) Schematic illustrating drug-inducible bi-partite dLbCpf1-based activator fusion proteins. dLbCpf1 is fused to one to four DmrA domains and VPR or p65 is fused to a DmrC domain. Because DmrA and DmrC interact only in the presence of an A/C-heterodimerizer drug (red diamond), the bi-partite activator is only reconstituted in the presence of the drug. (E) Activities of drug-inducible bi-partite dLbCpf1-based activators using single crRNAs at three endogenous human genes (HBB, AR, and NPY1R) in human HEK293 cells. Relative activation of the indicated gene promoters was measured by RT-qPCR. […] Data shown in (B) and (E) represent three biological independent replicates and error bars indicate standard deviation (SD) of three technical replicates.
# (§2) (A) Schematic of an expression cassette designed to express multiple gRNAs encoded on a single transcript. The arrows indicate cleavage sites being processed by the RNase activity of dLbCpf1. (B) Schematic illustrating multiplex expression of three crRNAs each targeted to a different endogenous gene promoter in a single cell. (C) Simultaneous activation of three endogenous human genes using crRNAs expressed from a multiplex transcript or from individual transcripts with dLbCpf1-VPR direct fusions (left panel), dLbCpf1-DmrA(×4) and DmrC-VPR fusions (middle panel), and dLbCpf1-DmrA(×4) and DmrC-p65 fusions (right panel). Transcripts were measured in HEK293 cells using RT-qPCR with relative mRNA expression calculated by comparison to the control sample in which no crRNA is expressed. (D) Activities of MST crRNA with different dLbCpf1-based activators in human U20S cells. Graphs showing activation of three endogenous human genes with dLbCpf1-VPR direct fusions, dLbCpf1-DmrA(×4) and DmrC-p65 fusions, and dLbCpf1-DmrA(×4) and DmrC-VPR fusions and crRNAs expressed from a multiplex single transcript (MST) or from transcripts encoding a single crRNA. RNA expression was measured by RT-qPCR and relative expression shown was calculated by comparison to a control sample in which no crRNA is expressed. (E) Schematic illustrating multiplex expression of three crRNAs each targeted to the same endogenous gene promoter in the same cell. (F) Activities of direct dLbCpf1-p65 or dLbCpf1-VPR fusions with sets of three crRNAs expressed from a multiplex transcript or from individual transcripts on the HBB, AR, or NPY1R endogenous gene promoters. Transcripts were measured in HEK293 cells using RT-qPCR with relative mRNA expression calculated by comparison to the control sample in which no crRNA is expressed. (G) Activities of dLbCpf1-DmrA(×4) and DmrC-VPR fusions or with dLbCpf1-DmrA(×4) and DmrC-p65 fusions with sets of three crRNAs expressed from a multiplex transcript or from individual transcripts on the HBB, AR, or NPY1R endogenous gene promoters. […]
# AR = assay: RT-qPCR activation of endogenous AR gene promoter in HEK293 cells; details: single crRNA
# Protocol: as §1
# (A) Schematic of an expression cassette designed to express multiple gRNAs encoded on a single transcript. The arrows indicate cleavage sites being processed by the RNase activity of dLbCpf1. (B) Schematic illustrating multiplex expression of three crRNAs each targeted to a different endogenous gene promoter in a single cell. […] Transcripts were measured in HEK293 cells using RT-qPCR with relative mRNA expression calculated by comparison to the control sample in which no crRNA is expressed. […] RNA expression was measured by RT-qPCR and relative expression shown was calculated by comparison to a control sample in which no crRNA is expressed. […] Transcripts were measured in HEK293 cells using RT-qPCR with relative mRNA expression calculated by comparison to the control sample in which no crRNA is expressed. […]
# HBB [1] = assay: RT-qPCR activation of endogenous HBB gene promoter in HEK293 cells; details: single crRNA
# Protocol: as §1, §2
# HBB [2] = assay: RT-qPCR activation of HBB in U2OS cells; details: MST crRNAs and single crRNAs
# Excerpt: (A) Schematic of an expression cassette designed to express multiple gRNAs encoded on a single transcript. The arrows indicate cleavage sites being processed by the RNase activity of dLbCpf1. (B) Schematic illustrating multiplex expression of three crRNAs each targeted to a different endogenous gene promoter in a single cell. (C) Simultaneous activation of three endogenous human genes using crRNAs expressed from a multiplex transcript or from individual transcripts with dLbCpf1-VPR direct fusions (left panel), dLbCpf1-DmrA(×4) and DmrC-VPR fusions (middle panel), and dLbCpf1-DmrA(×4) and DmrC-p65 fusions (right panel). Transcripts were measured in HEK293 cells using RT-qPCR with relative mRNA expression calculated by comparison to the control sample in which no crRNA is expressed. […] RNA expression was measured by RT-qPCR and relative expression shown was calculated by comparison to a control sample in which no crRNA is expressed. […] Transcripts were measured in HEK293 cells using RT-qPCR with relative mRNA expression calculated by comparison to the control sample in which no crRNA is expressed. […] Transcripts were measured in HEK293 cells using RT-qPCR with relative mRNA expression calculated by comparison to the control sample in which no crRNA is expressed. […] Cells were collected at various time points and relative mRNA expression levels were measured by RT-qPCR compared to a negative control. […]
# [3] = bi-partite with dLbCpf1-DmrA fusions
# [4] = bi-partite with dLbCpf1-DmrA fusions, A/C heterodimerizer
# [5] = bi-partite, with dLbCpf1 fusions harboring two, three or four DmrA domains
molecule,measurement,setting,value
B1,dependence of maximal activation on A/C heterodimerizer drug,NPY1R; [3],dependent on the presence of A/C heterodimerizer drug
same,level of activation somewhat less than that obtained with DmrC-VPR,NPY1R; [3],~30%
same,fold activation of transcription,NPY1R; [4],~10 fold
same,activation of transcription,NPY1R; [5],could robustly activate transcription
same,dependence of maximal activation on A/C heterodimerizer drug,AR; [3],dependent on the presence of A/C heterodimerizer drug
same,fold activation of transcription,AR; [4],~25 fold
same,activation of transcription,AR; [5],could robustly activate transcription
same,dependence of maximal activation on A/C heterodimerizer drug,HBB [1]; [3],dependent on the presence of A/C heterodimerizer drug
same,level of activation somewhat less than that obtained with DmrC-VPR,HBB [1]; [3],~50%
same,fold activation of transcription,HBB [1]; [4],~20 fold
same,activation of transcription,HBB [1]; [5],could robustly activate transcription
same,gene activation (relative RNA expression),HBB [2],even greater than in HEK293s
